According to US20110311550A1 (Scripps Research, published 2011):
Numbering of substitutions follows the chain as printed.

Columns and labels:
[1] = target: VSV (control pseudotype virus envelope); experiment: cell-based or functional assay
[2] = target: E1E2 (Env) of HCV isolate UKN2A1.2 (genotype 2a) on HCVpp (hepatitis C virus, isolate UKN2A1.2); experiment: cell-based or functional assay
[3] = target: E1E2 (Env) of HCV isolate UKN4.21.16 (genotype 4) on HCVpp (hepatitis C virus, isolate UKN4.21.16); experiment: cell-based or functional assay
[4] = target: E1E2 (Env) of HCV isolate OH8 (genotype 1b) on HCVpp (hepatitis C virus, isolate OH8); experiment: cell-based or functional assay
[5] = target: E1E2 (Env) of HCV isolate UKN1B12.16 (genotype 1b) on HCVpp (hepatitis C virus, isolate UKN1B12.16); experiment: cell-based or functional assay
[6] = target: E1E2 (Env) of HCV isolate J6 (genotype 2a) on HCVpp (hepatitis C virus, isolate J6, UniProt P26660 192-383; P26660 384-750); experiment: cell-based or functional assay
[7] = target: E1E2 (Env) of HCV isolate UKN2B1.1 (genotype 2b) on HCVpp (hepatitis C virus, isolate UKN2B1.1); experiment: cell-based or functional assay
[8] = target: E1E2 (Env) of HCV isolate H (genotype 1a) on HCVpp (hepatitis C virus, isolate H); experiment: cell-based or functional assay
[9] = target: E1E2 (Env) of HCV isolate UKN5.15.7 (genotype 5) on HCVpp (hepatitis C virus, isolate UKN5.15.7); experiment: cell-based or functional assay
[10] = target: T1, HCV E1E2 complex, isolate H77 (genotype 1a) (hepatitis C virus genotype 1a, isolate …, UniProt P27958 192-383; P27958 384-746); experiment: Fab ELISA on unmasked E1E2
[11] = target: T1, HCV E1E2 complex, isolate H77 (genotype …); experiment: apparent affinity: half-maximal binding, ELISA on lectin-captured E1E2
[12] = target: HCV E1E2 complex, isolate HCV-1 (genotype 1a), vaccinia-expressed (hepatitis C virus genotype 1a, isolate …, UniProt P26664 192-383; P26664 384-746); experiment: as above
[13] = target: T1, HCV E1E2 complex, isolate H77 (genotype …); experiment: Fab screen after panning on E1E2 (H77)

B1: MAb AR3B (antibody, V domains shown)
VH: LEQSGPEVKKPGSSVKVSCKDSGDTFNEPVTWVRQAPGQGLEWIGGIIPAFGVTKYAQKFQGRVIISADASTATAYLELSSLRSEDTAVYYCAKVGLRGIVMVGGLAMNWLDPWGQGTQVTVSS
VL: not shown
For B1, the “Neutralizing activity (IC50) on control pseudotype virus” value [1] was greater than 50 µg/mL, the “Neutralizing activity (IC50) on HCVpp” value [2] was 5 µg/mL and the “Neutralizing activity (IC50) on HCVpp” value [3] was 1 µg/mL. The “Neutralizing activity (IC50) on HCVpp” value [4] was 5 µg/mL, the “Neutralizing activity (IC50) on HCVpp” value [5] was 1 µg/mL and the “Neutralizing activity (IC50) on HCVpp” value [6] was 10 µg/mL. For the same binder, the “Neutralizing activity (IC50) on HCVpp” value [7] was 10 µg/mL, the “Neutralizing activity (IC50) on HCVpp” value [8] was 1 µg/mL and the “Neutralizing activity (IC50) on HCVpp” value [9] was 1 µg/mL.

B2: Fab N1 (Fab, V domains shown)
VH: VQLLEQSGPEVKKPGDSLRISCKMSGDSLVTTWIGWVRQKPGQGLEWMGIINPGDSSTNIYPGDSATRYGPSFQGQVTISIDKSTSTAYLQWNAVKPSDTGIYYCARHVPVPISGTFLWREREMHDFGYFDDWGQGTLVIVSS
VL: ELTQSPGTLSLSPGERATLSCRASQSVSSSYLAWYQQKPGQAPRLLIYGASNRAAGIPDRFSGSGSGADFTLTISRLEPEDFAVYYCQQYGSSLITFGQGTRLEIKR
notes: Soluble Fab
B2: binds [10].

B3: Fab N2 (Fab, V domains shown)
VH: B2 VH with A94T
VL: ELTQSPGTLSLFPGERATLSCRASQSILGRYLAWYQQKGGRAPRLLIFGASKRATGIPDRFSGSGSGTDFTLTIGRLEPEDFAVYYCQHYGSSITFGQGTRLDIKR
notes: Soluble Fab
B3: binds [10].

B4: Fab N3 (Fab, V domains shown)
VH: VQLLEQSGAEVKKPGDSLRISCKMSGDSLVWIGWVRQKPGQGLEWMGIINPGDSATNIYPGDSDTRYGPSFQGQVTISIDKSTSTAYLQWNAVKASDTGIYYCARHVPVPISGTFLWREREMHDLGYFDDWGQGTLVIVSS
VL: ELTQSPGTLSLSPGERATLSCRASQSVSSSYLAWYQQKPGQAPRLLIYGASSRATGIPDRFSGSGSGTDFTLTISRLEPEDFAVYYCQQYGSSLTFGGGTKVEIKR
notes: Soluble Fab
B4: binds [10].

B5: MAb AR1B (IgG1 from Fab D1) (antibody, V domains shown)
VH: LESGGGLVQPGGSLRLSCEASGYYFSSFAMSWVRQTPGKGLEWVSSIAGGTLGRTSYRDSVKGRFTISRDNSKNTVFLHMNNLRPEDTAVYYCAKDPLLFAGGPNWFDHWGQGTLVTVSS
VL: not shown
B5 was tested, and the EC50 [11] was 0.6 nM and the EC50 [12] was 0.4 nM.

B6: Fab O1 (Fab, V domains shown)
VH: VQLLEQSGAEVKKAGESVRLSCKASGYRFGDYWIAWVRQLPGRAPEWMGIIYPDDSDTKYSPSFQGQVTISADKSIRTTFLDWGSLKASDTAIYYCARGCLGAKCYYPHYYYGLDVWGQGTTVIVSS
VL: ELTQSPSSLSASVGDRVTITCRATQGIDNYLNWYQQKPGKPPRLLIYGASSLQSGVPSRFSGGGSGTHFTLTITNLQPEDFATYYCQQSYSTPPETFGQGTKVEIKR
notes: Soluble Fab
B6: binds [10].

B7: Fab P1 (Fab, V domains shown)
VH: EVQLLESGGGVVQPGGSLRLSCAASGFTFTSFTMHWVRQAPGKGLEWVALISHDGSNKDYADSVRGRFTVSRDNSKKMVYLQMSSLRPDDAAVYYCARGGPAYYTYSDTLTGYHNVVGDYWGQGTLVTVSS
VL: ELTQSPGTLSLSPGERATLSCRASQVRGFLAWFQQKPGQAPRLLIYGASNRAPGIPDRFSGSGSGTDFTLTISRLEPEDFAVYYCQQYGDSPPITFGQGTRLEIKR
notes: Soluble Fab
B7: binds [10].

B8: Fab P1a (Fab, V domains shown)
VH: B7 VH
VL: ELTQSPGTLSLSPGERATLSCRTSQSVSSTYLAWYQQKPGQPPRLLIYGASNRAPGIPDRFSGSGSGTDFTLTISRLEPEDFAVYYCQQYGDSPPITFGQGTRLDIKR
B8: binds [10].

B9: Fab P3 (Fab, V domains shown)
VH: EVQLLESGGGVVQPGKSLRLSCAVSGFTLNTFAMHWVRQVPGKGLEWVALTSHDGSRQDYADSVRGRFTISRDNSKSMVFLLMNSLRAEDTAVYYCVRGGPAYYTYNDVLTGYAYVVGDFWGQGTLVTVSS
VL: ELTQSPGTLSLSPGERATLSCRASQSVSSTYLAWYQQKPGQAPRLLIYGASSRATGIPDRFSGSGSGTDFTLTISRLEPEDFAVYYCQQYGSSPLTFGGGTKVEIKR
B9: binds [10].

B10: MAb AR2A (IgG1 from Fab G) (antibody, V domains shown)
VH: LEQSGAEMKKPGASLKVSCKTSGYTFDDYGVTWVRQAPGQGLEWMGWISAYSGNTFYARKFQGRVTMTTDPSTRTAYMELRSLRSDDTAVYFCARDRGLAINGVVFPYFGLDVWGQGTTVTVSS
VL: ELTQSPVSLPVTPGEPASISCRSSQSLLHSNGNHYLDWYLQKPGQSPQLLMYLGSNRASGVPDRFSGSGSGTDFTLKISRVEAEDVGVYYCMQGLQTPWTFGQGTKVEIKR
notes: also called G IgG
B10 was tested, and the EC50 [11] was 1.6 nM and the EC50 [12] was 3.1 nM.

B11: Fab S1 (Fab, V domains shown)
VH: VQLLEQSGAEVKKPGTSVKVSCTASGYIFTSFGISWVRQAPGQGLEWMGRIDTYNGKTNYAQKLQGRVTMTTDTYTSTAYMELRSLTSDDTAVYYCARDDCRSSTCYLAQHNWQAYYHDSWGQGTLVTVSS
VL: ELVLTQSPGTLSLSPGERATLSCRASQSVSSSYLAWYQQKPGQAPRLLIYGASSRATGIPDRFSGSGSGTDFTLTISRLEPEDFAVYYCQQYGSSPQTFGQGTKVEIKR
B11: binds [10].

B12: Fab T1 (Fab, V domains shown)
VH: EVQLLESGGGLVQPGGSLRLSCAASGFTFSRFWMHWVRQAPGKGLVWVARINSDGSSTTYADSVKGRFTISRDNAKNTLYLQMNSLRDEDTAVYFCARGGDSSSPYYYPMDVWGQGTTVAVSS
VL: not shown
B12: binds [10].

B13: Fab U1 (Fab, V domains shown)
VH: VQLLEQSGPEVKRPGTSVKMSCKISGGASITQAMSWVRQAPGQGLEWMGGITPIFGTVNYAQKILGRVTITADEDTVSLELSSLKSEDTAVYYCAREVNLKTWNLAHPNVFDVWGQGTMLTVSS
VL: ELTQSPSSLSASVGDRVTITCRASQSISSFLNWYQQKPGKAPKLLIYAASSLQSGVPPRFSGSGSGTDFTLTISSLQPEDFATYYCQQSYSTPRTFGQGTKLEIKR
B13: binds [10].

B14: Fab L5 (Fab, V domains shown)
VH: VQLLEQSGTEVKKPGSSVKVSCKVPGDTFRSYVITWVRQAPGQGLEWLGGILPFFGTTNLAQKFQGRVTLTADESTTTAYMELSSLRAEDTAVYYCAKAGDLAFGGVIAGGVPHLSHFDPWGQGTLVTVSS
VL: ELTQSPGTLSLSPGERATLSCRASQSVRSNYLAWYQQKPGQAPRLLIYGASSRATGIPDRFSGSGSGTDFTLTISRLEPEDFAMYYCQQYGSSMCSFGQGTKVEIKR
B14: binds [13].

B15: Fab L6 (Fab, V domains shown)
VH: B14 VH with A40S, A88S, S131A
VL: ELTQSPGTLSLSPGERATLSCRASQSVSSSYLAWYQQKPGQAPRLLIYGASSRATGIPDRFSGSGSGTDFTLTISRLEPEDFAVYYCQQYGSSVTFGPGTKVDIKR
B15: binds [13].

B16: Fab S2 (Fab, V domains shown)
VH: B11 VH with T16A
VL: B14 VL with G7A, R28S, N30R, Y31F, M84V, M94P, C95Q, S96T
B16: binds [13].

B17: Fab U2 (Fab, V domains shown)
VH: VQLLEQSGAEVKRPGSSVKLSCKNSGGTFITQAMSWVRQAPGQGLEWMGGIIPVFGTVNYAQNILDRATATADEDTFSLELRGLRLEDTAVYYCAREVNLKTWNLARPDVFDIWGPGTLVTVSS
VL: ELTQSPSSLSASIGDRVTIPCRASQSILNHLNWYQQKPGQPPKLLIFAASNLQSGVPSRFSGSGSGTDFTLTISSLQTEDFATYYCQQSYSTPRTFGQGTKVEVKR
B17: binds [13].

B18: Fab U3 (Fab, V domains shown)
VH: VQLLEQSGAEVKRPGSSVKISCKNSGGTFITQAMSWVRQAPGQGLEWMGGIIPIFGTVNYAQKILGRVTITADEDTVSMELSSLGFEDTAVYYCAREVNLKSWNLAHPDVFDIWGQGTLVTVSS
VL: B13 VL with S28R, F30Y, K43N, A48S, S51N, P58S, S61R, S91R, L102V, I104S
B18: binds [13].
